Here are results for 1 substance from paper PMC3991421.

The experiment has as its target hydroxycoumarin-labeled M2 C terminus (…) (influenza A virus). In words: […]; fluorescence anisotropy, equilibrium; […], in triplicate.

For the substance “purified LC3 (from UniProt Q9GZQ8 1-120) (natural protein)”, the Kd (commonly the concentration at which binding is half-saturated) stood at 9.5 µM.
